Experiments:
[1] = test system: inguinal adipose tissue; experiment: FGF8b releasing pellet implanted into inguinal (subcutaneous) adipose tissue in vivo; set-up: species or system 129Sv/ev mice; details: FGF8b pellets implanted into inguinal adipose tissue
Description: Pellets 1.5 mm in diameter were fabricated from a biodegradable matrix to locally release 100 ng FGF8b per day for 21 days (Innovative Research of America, Sarasota, Fla., USA). […] To implant a pellet into the subcutaneous adipose tissue, a mouse of the 129Sv/ev strain was anesthetized, abdominal fur removed and the pellet pushed into the depot through a short cut in the skin. To target the visceral adipose tissue, the pellet was introduced through a small cut each into skin and abdominal wall and placed between lobes of epididymal adipose tissue. Mice were kept in a specific pathogen free barrier facility at room temperature in a 12:12 hour light:dark cycle with free access to food and water. Three weeks after implantation mice were killed by carbon dioxide exposure and dissected. Blood parameters were analyzed with an automated clinical chemistry analyzer (Piccolo xpress system, Abaxis, Darmstadt, Germany). All animal experiments were performed according to the German animal welfare law (permission no. 55.2-1-54-2532-174-11). By visual inspection, the implantation site of FGF8b pellets and the surrounding adipose tissue was of a brown colour, while both the non-implanted contralateral depot and the implantation site of placebo pellets remained characteristically white (FIG. 6A). […]

[2] = test system: epididymal white adipose tissue; assay type: in vivo, adult male 129Sv/ev mice
Excerpt: Implantation of Ffg8b releasing pellets into the visceral, epididymal white adipose tissue depot leads to recruitment of brown adipocytes. A—Representative photographs centered on the implantation site of three control pellets (upper panels) and three Fgf8b pellets (lower panels). The epididymal fat depot is discernible in light gray shades surrounded by darker non-adipose tissues. The area of visible browning is marked by a dotted line. B—To highlight “visual browning” in this gray-scale images we digitally removed all pixels with a colour saturation of more than 162 (on a scale of 0-255). Here, white areas correspond to brown colour on a background of whitish adipose tissue. C—The mRNA abundance of several brown adipocyte marker genes in the entire depot. Ucp1 and Cox7a1 mRNA are increased by Fgf8b treatment but not by the placebo pellet. Physiological data of animals implanted with drug release pellets. A—The absolute body mass of mice was not altered by Fgf8b. […] C—The masses of the implanted epididymal fat depot and the contralateral non-implanted depot were not different. Interscapular brown adipose tissue was not different in placebo and Fgf8b treated animals. […] E—Plasma metabolites of carbohydrate and lipid metabolisms were not affected by Fgf8b treatment (GLU—glucose, CHOL—total cholesterol, nHDLc—non-HDL cholesterol, HDL—high density lipoproteins, LDL—low density lipoproteins, VLDL—very low density lipoproteins, TRIG—triglycerides). F—Liver enzymes in the plasma were not altered by Fgf8b treatment. Pellets 1.5 mm in diameter were fabricated from a biodegradable matrix to locally release 100 ng FGF8b per day for 21 days (Innovative Research of America, Sarasota, Fla., USA). […] To implant a pellet into the subcutaneous adipose tissue, a mouse of the 129Sv/ev strain was anesthetized, abdominal fur removed and the pellet pushed into the depot through a short cut in the skin. To target the visceral adipose tissue, the pellet was introduced through a small cut each into skin and abdominal wall and placed between lobes of epididymal adipose tissue. Mice were kept in a specific pathogen free barrier facility at room temperature in a 12:12 hour light:dark cycle with free access to food and water. Three weeks after implantation mice were killed by carbon dioxide exposure and dissected. Blood parameters were analyzed with an automated clinical chemistry analyzer (Piccolo xpress system, Abaxis, Darmstadt, Germany). All animal experiments were performed according to the German animal welfare law (permission no. 55.2-1-54-2532-174-11). To investigate the ability of FGF8b to transform white adipose tissue into brown adipose tissue in vivo, we obtained pellets that release 100 ng FGF8b per day and placebo pellets. One pellet each was implanted into the epididymal white adipose tissue of adult male 129Sv/ev mice. After three weeks mice were sacrificed and the tissue analyzed. […] In summary, we found no evidence of any gross metabolic difference between treatment groups.

[3] = RNA preparation of complete unilateral epididymal depot, 100 ng per day, three weeks, vs placebo pellet

B1: FGF8b: murine recombinant paracrine fibroblast growth factor 8, major spliceform b (R&D Systems); amino acid sequence identical to human, SEQ ID NO:16/20 (protein)
chain: MGSPRSALSCLLLHLLVLCLQAQVTVQSSPNFTQHVREQSLVTDQLSRRLIRTYQLYSRTSGKHVQVLANKRINAMAEDGDPFAKLIVETDTFGSRVRVRGAETGLYICMNKKGKLIAKSNGKGKDCVFTEIVLENNYTALQNAKYEGWYMAFTRKGRPRKGSKTRQHQREVHFMKRLPRGHHTTEQSLRFEFLNYPPFTRSLRGSQRTWAPEPR
modifications: human FGF8b
Visual browning and expression of brown adipocyte marker genes [1]: did not lead to visual browning or increased expression of brown adipocyte marker genes | Relationship between depot mass and body mass ([2]; 100 ng per day, three weeks, vs placebo (FIG. 7D)): not influenced | Depot mass of implanted and non-implanted epididymal fat and of interscapular brown adipose tissue ([2]; 100 ng per day, three weeks, vs placebo group): not different between groups | Final body weight ([2]; 100 ng per day, three weeks, vs placebo group, lean healthy mice): comparable | Plasma metabolites of carbohydrate and lipid metabolisms (GLU, CHOL, nHDLc, HDL, LDL, VLDL, TRIG) ([2]; 100 ng per day, three weeks, vs placebo, Piccolo xpress analyzer): not affected | Change in body weight during the 3 weeks of treatment ([2]; 100 ng per day, vs placebo group): comparable | Cox7a1 mRNA abundance in the entire depot [2, 3]: increased | Ucp1 mRNA abundance in the entire depot [2, 3]: increased | Systemic adverse reaction ([2]; mouse, in vivo): no evidence for any systemic adverse reaction | Extent of browned area away from the implanted pellet ([2]; one pellet releasing 100 ng FGF8b per day, three weeks): approximately 3 mm | Colour of implantation site and surrounding adipose tissue by visual inspection ([2]; one pellet releasing 100 ng FGF8b per day, three weeks, placebo site and contralateral depot remained white): brown colour

Source: US10532083B2, “Methods for inducing differentiation or conversion of white adipocytes and/or preadipocytes to brown adipocites using FGF8” (Technische Universität München, priority 2014, dated 2020)
